The values that follow come from CN110407938A (BEIJING JOINN BIOTECHNOLOGY CO LTD, dated 2019).

The test deals with T1, TIM-3 (分析物, SPR analyte).
T1 construct: also called TIM-3抗原; 分析物(TIM-3)
The experiment in a line: SPR (Biacore T200), 25°C; antibody captured by anti-human IgG Fc on a CM5 chip, TIM-3 as analyte at 0-100 nM, 1:1 binding model.

T1 sequence (Q8TDQ0 22-202): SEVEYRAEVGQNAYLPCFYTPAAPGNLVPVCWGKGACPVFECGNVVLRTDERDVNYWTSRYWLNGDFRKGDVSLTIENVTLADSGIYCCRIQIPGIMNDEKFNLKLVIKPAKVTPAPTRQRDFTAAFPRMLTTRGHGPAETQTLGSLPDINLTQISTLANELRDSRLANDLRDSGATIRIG

B1: 抗TIM-3抗体 (anti-TIM-3 monoclonal antibody of the invention) (antibody, V domains shown)
VH: QVQLQESGPGLVKPGETLSLTCAVSGGSFSRGGYYWNWIRQPPGKGLEWIGYIYYSGSTNYNPSLKSRVTISLDTSKNQFSLKLSSVTAEDTAVYYCARDHYTSSYNYDYWGQGTLVTVSS
VL: EIVLTQSPATLSLSPGERATLSCRASESVQSYIAWYQQKPGQAPRLLIYNASQRSTGIPARFSGSGSGTDFTLTISSLEPEDFAVYYCQQRFSWPPTFGQGTKLEIK
notes: The variable regions were cloned into the ZY-CDMO vector and expressed in CHO cells; The antibody was purified on Protein A, captured by an anti-human IgG Fc antibody and detected with goat anti-human-HRP, so it carries a human IgG Fc; It came from a phage antibody library; also called 抗TIM-3单克隆抗体; 本发明抗TIM-3抗体
In turn, B1 gave a Kd of 6.41 nM.
